In series [1] the target is T1, SCC1-myc (in vitro translated human SCC1 with myc tag) (UniProt O60216).
T1 sequence: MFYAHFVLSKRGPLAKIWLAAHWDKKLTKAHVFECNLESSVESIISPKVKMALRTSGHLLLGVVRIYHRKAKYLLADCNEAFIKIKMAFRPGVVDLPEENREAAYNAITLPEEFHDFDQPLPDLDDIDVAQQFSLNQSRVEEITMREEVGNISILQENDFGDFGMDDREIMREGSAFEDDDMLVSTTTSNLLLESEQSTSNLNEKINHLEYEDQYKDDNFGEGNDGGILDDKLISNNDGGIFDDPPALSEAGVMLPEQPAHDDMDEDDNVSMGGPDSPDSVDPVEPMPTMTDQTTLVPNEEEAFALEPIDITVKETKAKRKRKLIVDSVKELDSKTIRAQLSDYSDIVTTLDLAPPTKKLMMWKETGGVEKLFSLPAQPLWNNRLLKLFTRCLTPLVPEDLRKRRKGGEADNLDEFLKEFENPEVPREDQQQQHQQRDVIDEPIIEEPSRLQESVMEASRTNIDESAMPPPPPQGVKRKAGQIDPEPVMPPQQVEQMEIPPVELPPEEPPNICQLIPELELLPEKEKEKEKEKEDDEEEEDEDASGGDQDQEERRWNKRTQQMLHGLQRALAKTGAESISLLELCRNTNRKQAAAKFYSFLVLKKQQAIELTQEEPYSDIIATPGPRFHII

Series [2] addresses T2, recombinant human securin, wildtype, expressed in E. coli (UniProt O95997).
T2 sequence: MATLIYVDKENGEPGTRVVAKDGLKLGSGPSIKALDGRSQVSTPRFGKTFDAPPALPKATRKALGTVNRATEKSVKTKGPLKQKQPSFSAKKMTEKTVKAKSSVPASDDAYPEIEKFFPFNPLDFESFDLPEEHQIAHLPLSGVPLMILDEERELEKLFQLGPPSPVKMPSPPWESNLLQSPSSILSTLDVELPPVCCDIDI

Another series concerns T3, Bio-SVEQGR-cmk.
T3 sequence: SVEQGR

Series [3] addresses T4, destruction box deleted form of securin (UniProt O95997).
T4 sequence: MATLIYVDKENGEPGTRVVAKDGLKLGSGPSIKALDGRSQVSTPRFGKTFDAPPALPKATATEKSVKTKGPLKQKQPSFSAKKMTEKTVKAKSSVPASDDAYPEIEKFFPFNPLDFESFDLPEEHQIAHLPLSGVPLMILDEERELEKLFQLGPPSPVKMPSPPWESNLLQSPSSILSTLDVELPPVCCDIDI

A further series has as its system T5, Bio-SVEQGR-amk.
T5 sequence: SVEQGR

The subject of series [4] is separase-myc (in vitro translated separase construct with one myc epitope at its C-terminus).

With “N-terminally FLAG-tagged full length human separase expressed in HeLa cells, anti-FLAG immunoprecipitate activated in mitotic Xenopus egg extract”, in series [1], the “cleavage of SCC1-myc (anti-myc immunoblot, FIG. 6B)” value was “ectopically expressed separase is able to cleave human SCC1”.

As to “cleaved form of human separase (separase immunoprecipitate from nocodazole-arrested HeLa cells, activated in mitotic Xenopus egg extract)”, the “cleavage of SCC1-myc by separase (anti-myc immunoblot)” value is “no cleavage of SCC1 was detected” in series [2]; “both inhibitors are able to block the ability of separase to cleave SCC1” in the series with Bio-SVEQGR-cmk; “Identical results were obtained with two different forms of securin, the wildtype protein (WT-securin) and a form that can not be destroyed by ubiquitin-dependent proteolysis (DB-securin” in series [3]; “both inhibitors are able to block the ability of separase to cleave SCC1” in the series on Bio-SVEQGR-amk. The “cleavage of SCC1-myc (anti-myc immunoblot)” value in series [1] is listed as “it is the cleaved form of separase that is the active protease which cleaves SCC1, unless it is inhibited by the rebinding of securin”. Also, the “cleavage of SCC1-myc by separase (anti-myc immunoblot, FIG. 4C lane 2i)” value in the series on Bio-SVEQGR-amk is given as “separase was unable to cleave SCC1”. The “cleavage of SCC1-myc by separase (anti-myc immunoblot, FIG. 4C lane 3i)” value in the series on Bio-SVEQGR-amk is listed as “This treatment inhibited SCC1 cleavage by separase”. For the same substance, the “cleavage of in vitro translated separase-myc (anti-myc immunoblot, FIG. 5)” value in series [4] was “in vitro translated separase was cleaved when it was incubated with active separase obtained by incubation of separase immunoprecipitates in mitotic Xenopus egg extracts”.

Source of the values: patent US20020164620.
